The series in a line: total protein half-life in vivo (active degradation + dilution); higher = more stable protein.
The mark [1] stands for this setting: E. coli NCM3722 delta-clpP delta-lon delta-hslV, growth: N-lim chemostat, doubling time 6 h.
[2] abbreviates: E. coli NCM3722 delta-clpP, growth: N-lim chemostat, doubling time 6 h.
Where [3] appears, read: E. coli NCM3722 delta-hslV, growth: N-lim chemostat, doubling time 6 h.
[4] abbreviates: E. coli NCM3722 delta-smpB, growth: N-lim chemostat, doubling time 6 h.
The mark [5] stands for this setting: wild type E. coli NCM3722, growth: C-lim chemostat, doubling time 3 h.
Where [6] appears, read: wild type E. coli NCM3722, growth: C-lim chemostat, doubling time 6 h.
[7] abbreviates: wild type E. coli NCM3722, growth: C-lim chemostat, doubling time 12 h.
Where [8] appears, read: wild type E. coli NCM3722, growth: N-lim chemostat, doubling time 6 h.
Setting [9] is: wild type E. coli NCM3722, growth: N-lim chemostat, doubling time 12 h.
Setting [10] is: wild type E. coli NCM3722, growth: P-lim chemostat, doubling time 6 h.
[11] abbreviates: wild type E. coli NCM3722, growth: P-lim chemostat, doubling time 12 h.
Setting [12] is: E. coli NCM3722 delta-lon, growth: N-lim chemostat, doubling time 6 h.

± gives the standard deviation of the averaged measurements.

In the case of “MKRVLIPGVILCGADVAQAVDDKNMYMHFFEEMTVYAPVPVPVNGNTHYTSESIERLPTGNGNISDLLRTNPAVRMDSTQSTSLNQGDIRPEKISIHGASPYQNAYLIDGISATNNLNPANESDASSATNISGMSQGYYLDVSLLDNVTLYDSFVPVEFGRFNGGVIDAKIKRFNADDSKVKLGYRTTRSDWLTSHIDENNKSAFNQGSSGSTYYSPDFKKNFYTLSFNQELADNFGVTAGLSRRQSDITRADYVSNDGIVAGRAQYKNVIDTALSKFTWFASDRFTHDLTLKYTGSSRDYNTSTFPQSDREMGNKSYGLAWDMDTQLAWAKLRTTVGWDHISDYTRHDHDIWYTELSCTYGDITGRCTRGGLGHISQAVDNYTFKTRLDWQKFAVGNVSHQPYFGAEYIYSDAWTERHNQSESYVINAAGKKTNHTIYHKGKGRLGIDNYTLYMADRISWRNVSLMPGVRYDYDNYLSNHNISPRFMTEWDIFANQTSMITAGYNRYYGGNILDMGLRDIRNSWTESVSGNKTLTRYQDLKTPYNDELAMGLQQKIGKNVIARANYVYREAHDQISKSSRTDSATKTTITEYNNDGKTKTHSFSLSFELAEPLHIRQVDINPQIVFSYIKSKGNLSLNNGYEESNTGDNQVVYNGNLVSYDSVPVADFNNPLKISLNMDFTHQPSGLVWANTLAWQEARKARIILGKTNAQYISEYSDYKQYVDEKLDSSLTWDTRLSWTPQFLQQQNLTISADILNVLDSKTAVDTTNTGVATYASGRTFWLDVSMKF”, the “total protein half-life in vivo” value was 5.87 ± 0.22 h under setting [1]; 5.83 ± 0.27 h under setting [2]; greater than 8 h under setting [3]; 5.751 ± 0.012 h under setting [4]; 3.16 ± 0.12 h under setting [5]; 6.17 ± 0.26 h under setting [6]. Moreover, the “total protein half-life in vivo” value by setting is: under setting [7], 9.31 ± 0.88 h; under setting [8], 6.68 h; under setting [9], 12.2 ± 1.3 h; under setting [10], 6.72 h; under setting [11], 14.44 ± 0.031 h.
On to “MLIIETLPLLRQQIRRLRMEGKRVALVPTMGNLHDGHMKLVDEAKARADVVVVSIFVNPMQFDRPEDLARYPRTLQEDCEKLNKRKVDLVFAPSVKEIYPNGTETHTYVDVPGLSTMLEGASRPGHFRGVSTIVSKLFNLVQPDIACFGEKDFQQLALIRKMVADMGFDIEIVGVPIMRAKDGLALSSRNGYLTAEQRKIAPGLYKVLSSIADKLQAGERDLDEIITIAGQELNEKGFRADDIQIRDADTLLEVSETSKRAVILVAAWLGDARLIDNKMVELA”, for which the “total protein half-life in vivo” value is, setting by setting: under setting [1], 5.42 ± 0.33 h; under setting [2], 5.17 ± 0.93 h; under setting [3], 4.941 ± 0.045 h; under setting [12], 5.34 ± 0.1 h; under setting [4], 4.98 ± 0.26 h; under setting [5], 3.1 ± 0.28 h. The “total protein half-life in vivo” value under setting [6] worked out at 5.5 ± 0.056 h; the “total protein half-life in vivo” value under setting [7] was 11.8 ± 2.4 h; the “total protein half-life in vivo” value under setting [8] came to 4.868 ± 0.016 h; the “total protein half-life in vivo” value under setting [9] was determined as 8.38 ± 0.16 h; the “total protein half-life in vivo” value under setting [10] was 5.774 ± 0.017 h; the “total protein half-life in vivo” value under setting [11] worked out at 12.5 ± 0.45 h.
“MKYKHLILSLSLIMLGPLAHAEEIGSVDTVFKMIGPDHKIVVEAFDDPDVKNVTCYVSRAKTGGIKGGLGLAEDTSDAAISCQQVGPIELSDRIKNGKAQGEVVFKKRTSLVFKSLQVVRFYDAKRNALAYLAYSDKVVEGSPKNAISAVPVMPWRQ [P0AE91]”: the “total protein half-life in vivo” value reads like this: under setting [1], 5.76 ± 0.34 h; under setting [3], 6.57 ± 0.31 h; under setting [4], 6.01 ± 0.23 h; under setting [5], 2.92 ± 0.29 h; under setting [6], 5.9682 ± 0.0034 h; under setting [7], 12.1 ± 2.7 h. Also, the “total protein half-life in vivo” value was found to be 6.39 ± 1.3 h under setting [8], 13.3 ± 0.76 h under setting [9] and 6.41 ± 0.56 h under setting [10].
Regarding “MITIRDVARQAGVSVATVSRVLNNSTLVSADTREAVMKAVSELDYRPNANAQALATQVSDTIGVVVMDVSDAFFGALVKAVDLVAQQHQKYVLIGNSYHEAEKERHAIEVLIRQRCNALIVHSKALSDDELAQFMDNIPGMVLINRVVPGYAHRCVCLDNLSGARMATRMLLNNGHQRIGYLSSSHGIEDDAMRKAGWMSALKEQDIIPPESWIGAGTPDMPGGEAAMVELLGRNLQLTAVFAYNDNMAAGALTALKDNGIAIPLHLSIIGFDDIPIARYTDPQLTTVRYPIASMAKLATELALQGAAGNIDPRASHCFMPTLVRRHSVATRQNAAAITNSTNQAM”, the “total protein half-life in vivo” value was 5.93 h under setting [1]; 3.96 h under setting [2]; 4.74 ± 0.55 h under setting [6]; 8.13 ± 1.9 h under setting [7]; 10.9 h under setting [11].
With “MQKQAELYRGKAKTVYSTENPDLLVLEFRNDTSAGDGARIEQFDRKGMVNNKFNYFIMSKLAEAGIPTQMERLLSDTECLVKKLDMVPVECVVRNRAAGSLVKRLGIEEGIELNPPLFDLFLKNDAMHDPMVNESYCETFGWVSKENLARMKELTYKANDVLKKLFDDAGLILVDFKLEFGLYKGEVVLGDEFSPDGSRLWDKETLEKMDKDRFRQSLGGLIEAYEAVARRLGVQLD [P0A7D7]”, the “total protein half-life in vivo” value under setting [1] amounted to 4.82 ± 0.52 h; the “total protein half-life in vivo” value under setting [2] was 5.09 ± 0.82 h; the “total protein half-life in vivo” value under setting [3] came to 4.79 ± 0.36 h; the “total protein half-life in vivo” value under setting [12] stood at 5.32 ± 0.32 h; the “total protein half-life in vivo” value under setting [4] was 4.74 ± 0.15 h; the “total protein half-life in vivo” value under setting [5] came to 3.26 ± 0.21 h. Besides, the “total protein half-life in vivo” value runs as follows: under setting [6], 5.98 ± 0.26 h; under setting [7], 10.8 ± 0.71 h; under setting [8], 4.61 ± 0.12 h; under setting [9], 8 ± 0.35 h; under setting [10], 5.28 ± 0.41 h; under setting [11], 11.8 ± 0.46 h.
Turning to “MSSRKELANAIRALSMDAVQKAKSGHPGAPMGMADIAEVLWRDFLKHNPQNPSWADRDRFVLSNGHGSMLIYSLLHLTGYDLPMEELKNFRQLHSKTPGHPEVGYTAGVETTTGPLGQGIANAVGMAIAEKTLAAQFNRPGHDIVDHYTYAFMGDGCMMEGISHEVCSLAGTLKLGKLIAFYDDNGISIDGHVEGWFTDDTAMRFEAYGWHVIRDIDGHDAASIKRAVEEARAVTDKPSLLMCKTIIGFGSPNKAGTHDSHGAPLGDAEIALTREQLGWKYAPFEIPSEIYAQWDAKEAGQAKESAWNEKFAAYAKAYPQEAAEFTRRMKGEMPSDFDAKAKEFIAKLQANPAKIASRKASQNAIEAFGPLLPEFLGGSADLAPSNLTLWSGSKAINEDAAGNYIHYGVREFGMTAIANGISLHGGFLPYTSTFLMFVEYARNAVRMAALMKQRQVMVYTHDSIGLGEDGPTHQPVEQVASLRVTPNMSTWRPCDQVESAVAWKYGVERQDGPTALILSRQNLAQQERTEEQLANIARGGYVLKDCAGQPELIFIATGSEVELAVAAYEKLTAEGVKARVVSMPSTDAFDKQDAAYRESVLPKAVTARVAVEAGIADYWYKYVGLNGAIVGMTTFGESAPAELLFEEFGFTVDNVVAKAKELL”, the “total protein half-life in vivo” value under setting [1] worked out at 3.63 ± 0.31 h; the “total protein half-life in vivo” value under setting [2] was determined as 3.35 ± 0.19 h; the “total protein half-life in vivo” value under setting [3] was 3.03 ± 0.057 h; the “total protein half-life in vivo” value under setting [12] was 3.47 ± 0.1 h; the “total protein half-life in vivo” value under setting [4] worked out at 3.033 ± 0.021 h; the “total protein half-life in vivo” value under setting [5] turned out to be 3.22 ± 0.077 h. In addition, the “total protein half-life in vivo” value by setting is: under setting [6], 5.19 ± 0.23 h; under setting [7], 9.96 ± 0.12 h; under setting [8], 3.15 ± 0.11 h; under setting [9], 4.48 ± 0.056 h; under setting [10], 5.65 ± 0.089 h; under setting [11], 10.7 ± 0.21 h.
In the case of “MAENQSTVENAKEKLDRWLKDGITTPGGKLPSERELGELLGIKRMTLRQALLNLEAESKIFRKDRKGWFVTQPRFNYSPELSASFQRAAIEQGREPSWGFTEKNRTSDIPETLAPLIAVTPSTELYRITGWGALEGHKVFYHETYINPEVAPGFIEQLENHSFSAVWEKCYQKETVVKKLIFKPVRMPGDISKYLGGSAGMPAILIEKHRADQQGNIVQIDIEYWRFEAVDLIINL [P0ACM9]”, the “total protein half-life in vivo” value came to 6.16 ± 0.15 h under setting [1]; 5.99 ± 0.32 h under setting [2]; 5.13 ± 0.17 h under setting [3]; 4.95 h under setting [4]; 13.2 ± 3.2 h under setting [7]; 5.84 ± 0.19 h under setting [8]. The “total protein half-life in vivo” value reads like this: under setting [9], 9.06 ± 1 h; under setting [10], 5.01 ± 1.8 h; under setting [11], 9.28 h.

For the origin of these results see the supplement of paper PMC11246515.
